Reference: patent publication US20230094083A1 (YEDA RESEARCH AND DEVELOPMENT, published 2023)

Assays:
[1] = target: human Grp94 on the cell surface (senescent IMR-90 human lung fibroblasts; IPF patient lung fibroblasts) (human) (UniProt P14625); assay: cell-based or functional assay
[2] = target: T1, mouse Grp94 on the cell surface (Meth A sarcoma cells; senescent primary mouse lung fibroblasts) (mouse, UniProt P08113 22-802); assay: flow cytometry, hybridoma supernatant diluted 1:2 on Meth A sarcoma cells
T1 construct: whole, on cells; also called Grp94 expressed on the surface of Meth A cells
Procedure: (§1) Mouse Meth A sarcoma cells (Cat. 400284 CLS, Germany) were cultured using standard tissue culture conditions in RPMI-1640. Cells were seeded at 1×10⁵ in 100 microliter FACS buffer in 96 well U bottom FACS plates, pelleted and resuspended in 100 microliters neat or 1 in 2 diluted supernatant sample for 30 minutes at 4° C. Cells were washed twice with PBS and resuspended in 100 microliter secondary antibody, AF647 conjugated goat anti-mouse IgG A21236 (Thermo Fisher Scientific) at 2 micrograms/ml in FACS buffer for 30 minutes at 4° C. Cells were washed twice with PBS and resuspended in 100 microliters water containing 10% CellFix (Becton Dickinson, UK). Median fluorescence intensity was measured using an Attune NxT Acoustic Focusing Cytometer (Thermo Fisher Scientific) with autosampler using acquisition parameters optimized with unstained cells and secondary labeled cells: FSC:100, SSC:340, FL1:370. The acquisition rate was 100 microliter/minute stopping at 10,000 R1 events. Positive controls consisted of commercially sourced mouse anti-Grp94 antibodies MA1-10892 (Thermo Fisher Scientific) and MAB7606 (R&D System) at 2 micrograms/ml while negative control consisted of Meth A cells incubated with secondary antibody alone.

[3] = target: T2, recombinant human Grp94 (Creative Biomart, USA) (human, UniProt P14625 22-803, limits assumed); assay: Biacore single cycle kinetics, antibody captured, Grp94 as analyte
T2 construct: Bought recombinant protein; It served as immunogen, ELISA coat, Biacore analyte and the immobilised ligand in binning; also called rHGrp94; rhGrp94
Procedure: Biacore single cycle analysis was performed on supernatants where the monoclonal antibody was captured with Fc on the surface as the ligand and Grp94 flowed over as the analyte. Kinetic experiments were performed on a Biacore T200 running Biacore T200 Control software V2.0.1 and Evaluation software V3.0 (GE Healthcare, Sweden). All single cycle kinetic experiments were run at 25° C. with HBS-P+ running buffer (pH 7.4) (GE Healthcare, UK) containing 1 mg/ml BSA.
Antibodies were diluted in running buffer and at the start of each cycle were loaded onto Fc2, Fc3, and Fc4 of the CM5 chip coupled with an anti-mouse capture antibody using standard amine chemistry (GE Healthcare, UK). IgGs were captured at a flow rate of 10 microliter/minute to give an immobilization level (RL) of approximately 160RU. The surface was then allowed to stabilize. Single cycle kinetic data was obtained with Grp94 (Creative BioMart, USA) as the analyte at a flow rate of 30 microliter/min to minimize any potential mass transport limitations. […] The association phase for the three injections of increasing concentrations of Grp94 was monitored for 150 seconds each time and a single dissociation phase was measured for 900 seconds following the last injection of Grp94. […]

[4] = target: T1, mouse Grp94 on the cell surface (Meth A …); assay: ranking of clones by flow cytometry on Meth A sarcoma cells
[5] = target: T3, human Grp94 on the cell surface (senescent IMR-90 human lung fibroblasts; IPF patient lung fibroblasts) (human, UniProt P14625 22-803); assay: flow cytometry, senescent against proliferating human IMR-90 cells
T3 construct: whole, on cells; also called cell surface Grp94; Grp94 on the cell surface of senescent IMR-90 cells

[6] = target: T1, mouse Grp94 on the cell surface (Meth A …); assay: flow cytometry, neat hybridoma supernatant on Meth A sarcoma cells
Procedure: as §1

[7] = target: T3, human Grp94 on the cell surface …; assay: flow cytometry on senescent human IMR-90 cells
[8] = target: T1, mouse Grp94 on the cell surface (Meth A …); assay: flow cytometry, senescent against proliferating primary mouse lung fibroblasts
[9] = target: T3, human Grp94 on the cell surface …; assay: immunofluorescence on senescent human IMR-90 cells
[10] = target: T1, mouse Grp94 on the cell surface (Meth A …); assay: flow cytometry on senescent primary mouse lung fibroblasts

T3 sequence (P14625 22-803): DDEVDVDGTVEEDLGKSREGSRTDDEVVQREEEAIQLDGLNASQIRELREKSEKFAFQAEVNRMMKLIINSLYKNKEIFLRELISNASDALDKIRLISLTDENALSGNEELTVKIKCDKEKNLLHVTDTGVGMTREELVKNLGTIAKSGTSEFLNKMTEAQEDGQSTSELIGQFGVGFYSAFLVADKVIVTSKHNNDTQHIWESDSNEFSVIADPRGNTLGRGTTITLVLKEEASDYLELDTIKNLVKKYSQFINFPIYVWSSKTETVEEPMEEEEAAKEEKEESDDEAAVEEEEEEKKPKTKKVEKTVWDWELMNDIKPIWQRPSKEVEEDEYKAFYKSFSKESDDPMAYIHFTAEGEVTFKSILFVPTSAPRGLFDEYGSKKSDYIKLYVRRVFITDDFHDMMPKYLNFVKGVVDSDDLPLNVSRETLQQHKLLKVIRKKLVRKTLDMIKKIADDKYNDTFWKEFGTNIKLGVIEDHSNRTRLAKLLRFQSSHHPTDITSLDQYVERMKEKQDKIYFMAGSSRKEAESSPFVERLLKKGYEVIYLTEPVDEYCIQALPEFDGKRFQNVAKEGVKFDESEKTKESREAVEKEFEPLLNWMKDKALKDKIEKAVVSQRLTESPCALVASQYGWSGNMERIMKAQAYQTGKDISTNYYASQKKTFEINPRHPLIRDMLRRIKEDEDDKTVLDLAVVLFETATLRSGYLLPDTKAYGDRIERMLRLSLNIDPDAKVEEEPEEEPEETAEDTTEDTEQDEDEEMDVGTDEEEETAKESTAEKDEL
T1 sequence (P08113 22-802): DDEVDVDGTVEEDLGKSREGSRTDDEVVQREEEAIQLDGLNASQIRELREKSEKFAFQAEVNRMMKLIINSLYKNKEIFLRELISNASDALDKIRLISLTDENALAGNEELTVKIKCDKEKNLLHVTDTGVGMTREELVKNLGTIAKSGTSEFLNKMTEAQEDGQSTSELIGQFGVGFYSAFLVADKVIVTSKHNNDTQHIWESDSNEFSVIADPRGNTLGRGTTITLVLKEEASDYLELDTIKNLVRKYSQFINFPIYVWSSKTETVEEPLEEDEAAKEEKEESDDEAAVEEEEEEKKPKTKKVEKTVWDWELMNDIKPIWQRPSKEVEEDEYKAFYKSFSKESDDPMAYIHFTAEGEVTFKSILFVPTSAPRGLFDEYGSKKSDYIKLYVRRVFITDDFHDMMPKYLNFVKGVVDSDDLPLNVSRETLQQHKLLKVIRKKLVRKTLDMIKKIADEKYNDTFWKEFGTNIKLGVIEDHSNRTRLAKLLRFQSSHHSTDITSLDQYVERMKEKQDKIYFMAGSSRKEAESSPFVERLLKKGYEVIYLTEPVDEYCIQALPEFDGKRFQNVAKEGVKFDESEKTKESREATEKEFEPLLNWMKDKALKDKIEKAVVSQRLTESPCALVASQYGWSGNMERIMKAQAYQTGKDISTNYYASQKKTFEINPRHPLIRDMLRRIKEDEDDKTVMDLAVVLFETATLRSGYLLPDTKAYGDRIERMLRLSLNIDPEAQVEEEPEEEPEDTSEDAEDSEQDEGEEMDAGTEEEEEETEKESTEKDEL
human Grp94 on the cell surface (senescent IMR-90 human lung fibroblasts; IPF patient lung fibroblasts) (human), sequence (P14625 22-803): as the sequence (P14625 22-803) above
T2 sequence (P14625 22-803 limits assumed): as the sequence (P14625 22-803) above

Binder	ADCC reporter-gene assay (Promega, mouse FcgRIV effector cells), activation of the reporter; target cells senescent IMR-90 [1] [fold]	mFcγRIV ADCC Reporter Bioassay (Promega), activation of the reporter gene; target cells senescent IMR-90 [1] [fold]	Meth A Dilution 1:2 (mean fluorescence intensity) [2]	Kd [3] [nM]	Top 24 by Meth A (rank score, 1 = best binder) [4] [rank]	Human FACS ratio (senescent cells / proliferating cells) [5] [ratio]	Meth A Binding (mean fluorescence intensity) [6]	Human FACS plot (score 1-9, 1 = best) [7] [score]	Mouse FACS ratio (senescent cells / proliferating cells) [8] [ratio]	Human IF (score 1-9, 1 = best) [9] [score]	Mouse FACS (score 1-9, 1 = best) [10] [score]
optimized anti-Grp94 4C2 antibody (mouse IgG2a, Fc substitutions S239D and I332E, afucosylated) (antibody, part only; not given: mutant mouse IgG2a and light constant, V domains shown, not shown: another chain or arm of the molecule; a dimerising Fc or GST, The Fc substitutions S239D and I332E (paragraph 258 prints the second as 1332E; paragraph 22 has I332E) and the afucosylated Fc glycan lie in the constant region. The letters given do not carry them.) VH: EVQLVETGGGLVQPKGSLKLSCAASGFTFNTNAMNWVRQAPGKGLEWVARIRSKSNNYATYYADSVKDRFTISRDDSQSMLFLQMNNLKTEDTAMYYCVRDTLAWFAYWGQGTLVTVSA VL: QIVLTQSPAIMSASPGEKVTITCSASSSVSYMHWFQQKPDTSPKLWIYSTSNLASGVPARFSASGSGTSYSLTISRMEAEDAATYYCQQKTSYPPTFGAGTKLELK	20	20									
anti-Grp94 monoclonal antibody clone 4C2 (antibody, V domains shown, Mouse hybridoma antibody; It was tested as hybridoma supernatant in the screens (ELISA, Meth A FACS, Biacore, binning); also called 4C2 clone hybridoma supernatant; monoclonal antibody 4C2) VH: EVQLVETGGGLVQPKGSLKLSCAASGFTFNTNAMNWVRQAPGKGLEWVARIRSKSNNYATYYADSVKDRFTISRDDSQSMLFLQMNNLKTEDTAMYYCVRDTLAWFAYWGQGTLVTVSA VL: QIVLTQSPAIMSASPGEKVTITCSASSSVSYMHWFQQKPDTSPKLWIYSTSNLASGVPARFSASGSGTSYSLTISRMEAEDAATYYCQQKTSYPPTFGAGTKLELK			1990 RFU (mean fluorescence intensity)	3.47	1	1	2690 RFU (mean fluorescence intensity)	4	5	1	
anti-Grp94 monoclonal antibody clone 5B2 (antibody, mouse IgG2a, V domains shown, Mouse hybridoma antibody, tested as hybridoma supernatant) VH: EVQLVETGGGLVQPKGSLKLSCAASGFTFNTNAMNWVRQAPGKGLEWVARIRSKSNNYATYYADSVKDRFTISRDDSQNMFYLQMNNLKTEDTAMYYCVRDTATWFAYWGQGTLVTVSA VL: QIVLTQSPALMSASPGEKVTIACSASSSVSYMHWFQQKPGTSPKLWIYSTSNLASGVPARFSGSGSGTSYSLTISRMEAEDAATYYCQQKTSYPPTFGSGTKLEIK			746 RFU (mean fluorescence intensity)	2.5	12	3	819 RFU (mean fluorescence intensity)	3	6	3	
anti-Grp94 monoclonal antibody clone 9A3 (antibody, mouse IgG2a, V domains shown, Mouse hybridoma antibody, tested as hybridoma supernatant) VH: EVKLVESGGGLVKPGGSLKLSCAASGFTFRTYAMSWVRQTPEKRLEWVATITTGGPTYYPDNVKGRFTISRDNDRNILDLQMNSLRSEDTATYYCLRGATTGDYWGQGTTLIVSS VL: DIVMTQSHKFMFTSVGDRVSITCKASHDVSTAVAWYQQKPGQYPKLLIYWASNRYTGVPDRFTGSGSGMDFTFTISSVQAEDLAVYYCQQHSSTPYTFGGGTRLEIK			688 RFU (mean fluorescence intensity)		18	6	732 RFU (mean fluorescence intensity)	1	7	4	4
